# Positions count from the first letter of the chain named.
# B1: Hu 52H5D3B8-8 (antibody, human IgG1, kappa, V domains shown)
# VH: EVQLVQSGAEVKKPGASVKVSCKASGYTFTDYEMHWVRQAPGQGLEWMGAIHPGSGGTAYNQKFKGRVTMTADKSISTAYMELSRLRSDDTAVYYCTRFYSYAYWGQGTLVTVSS
# VL: DVVMTQTPLSLSVTPGQPASISCRSSQSLVHSNGNTYLQWYLQKPGQSPQLLIYKVSNRFSGVPDRFSGSGSGTDFTLKISRVEAEDVGVYFCSQSIHVPYTFGGGTKVEIKR
# notes: also called humanized GPC3 antibody Hu 52H5D3B8-8
# B2: Hu 52H5D3B8-8-L4-D4 (antibody, human IgG1, kappa, V domains shown)
# VH: B1 VH
# VL: B1 VL
# modifications: MC-MMAF (L4-D4) on cysteine thiols freed by TCEP reduction of disulfide bonds; positions not given
# notes: Constant regions as for Hu 52H5D3B8-8; also called Hu 52H5D3B8-8 ADC; Anti-GPC3-L4-D4
# B3: Hu 52H5D3B8-8-ZLA (antibody, human IgG1, kappa, V domains shown)
# VH: B1 VH
# VL: B1 VL
# modifications: ZLA linker-payload on cysteine thiols freed by TCEP reduction of disulfide bonds; positions not given
# notes: Constant regions as for Hu 52H5D3B8-8; also called Hu 52H5D3B8-8 ADC; Anti-GPC3-ZLA
# B4: GC33 antibody (Chugai Pharmaceutical) (antibody, V domains shown)
# VH: QVQLVQSGAEVKKPGASVKVSCKASGYTFTDYEMHWVRQAPGQGLEWMGALDPKTGDTAYSQKFKGRVTLTADKSTSTAYMELSSLTSEDTAVYYCTRFYSYTYWGQGTLVTVSS
# VL: DVVMTQSPLSLPVTPGEPASISCRSSQSLVHSNGNTYLHWYLQKPGQSPQLLIYKVSNRFSGVPDRFSGSGSGTDFTLKISRVEAEDVGVYYCSQNTHVPPTFGQGTKLEIK
# notes: Control antibody, prepared as in US 7919086 B2; Whole antibody; Detected with anti-human IgG
# B5: GC33-L4-D4 (antibody, V domains shown)
# VH: B4 VH
# VL: B4 VL
# modifications: MC-MMAF (L4-D4) on cysteine thiols of the antibody freed by TCEP reduction of disulfide bonds; positions not given
# notes: Whole antibody; also called GC33 ADC; Anti-GPC3-L4-D4
# B6: GC33-ZLA (antibody, V domains shown)
# VH: B4 VH
# VL: B4 VL
# modifications: ZLA linker-payload on cysteine thiols of the antibody freed by TCEP reduction of disulfide bonds; positions not given
# notes: Whole antibody; also called GC33 ADC; Anti-GPC3-ZLA
# B7: Hu 52H5D3B8-7 (antibody, human IgG1, kappa, V domains shown)
# VH: B1 VH
# VL: B1 VL with F92Y
# notes: also called humanized GPC3 antibody Hu 52H5D3B8-7
# B8: Y035 CDRs with Hu 52H5D3B8-7 FRs (antibody, V domains shown)
# VH: B1 VH with G57D, K63R
# VL: B4 VL with S7T, P12S, E17Q, H39Q, N96S, T97I, H98Y, P101Y, Q105G, L109V
# notes: built here from the pieces; detected with anti-human IgG
# B9: Y035 antibody (CARSGEN Therapeutics), humanized (antibody, V domains shown)
# VH: B1 VH with F29H, T30S, G57D, K63R, M70I, I76T, R85S, D89E, T97A, S115A
# VL: B1 VL with V2I, S12P, Q17E, F92Y, H98Y, G105Q, V109L
# B10: Hu 52H5D3B8-7/8 CDRs with Y035 FRs (antibody, V domains shown)
# VH: B1 VH with F29H, T30S, M70I, I76T, R85S, D89E, T97A, S115A
# VL: B1 VL with V2I, S12P, Q17E, F92Y, G105Q, V109L
# B11: GC33-L1-D1 (antibody, V domains shown)
# VH: B4 VH
# VL: B4 VL
# modifications: MC-vc-PAB-MMAE (L1-D1) on cysteine thiols of the antibody freed by TCEP reduction of disulfide bonds; positions not given
# B12: Hu 52H5D3B8-8-L1-D1 (antibody, human IgG1, kappa, V domains shown)
# VH: B1 VH
# VL: B1 VL
# modifications: MC-vc-PAB-MMAE (L1-D1) on cysteine thiols freed by TCEP reduction of disulfide bonds; positions not given
# B13: Hu 52H5D3B8-8-L3-D3 (antibody, human IgG1, kappa, V domains shown)
# VH: B1 VH
# VL: B1 VL
# modifications: MA-PEG4-VC-PAB-DMEA-Duocarmycin SA (L3-D3) on cysteine thiols freed by TCEP reduction of disulfide bonds; positions not given
# B14: GC33-L3-D3 (antibody, V domains shown)
# VH: B4 VH
# VL: B4 VL
# modifications: MA-PEG4-VC-PAB-DMEA-Duocarmycin SA (L3-D3) on cysteine thiols of the antibody freed by TCEP reduction of disulfide bonds; positions not given
# B15: Hu 52H5D3B8-7-L1-D1 (antibody, human IgG1, kappa, V domains shown)
# VH: B1 VH
# VL: B1 VL with F92Y
# modifications: MC-vc-PAB-MMAE (L1-D1) on cysteine thiols freed by TCEP reduction of disulfide bonds; positions not given
# B16: Hu 52H5D3B8-7-L4-D4 (antibody, human IgG1, kappa, V domains shown)
# VH: B1 VH
# VL: B1 VL with F92Y
# modifications: MC-MMAF (L4-D4) on cysteine thiols freed by TCEP reduction of disulfide bonds; positions not given
# Molecular target: T1, human GPC3 (Glypican-3) (human, UniProt P51654 25-580)
# T1 construct: whole, on cells; the cell line is named under assay or readout
# Assay: FACS on HepG2 cells
# Conditions: not given
row,Molecule,EC50 [µg/mL]
1,B1,0.0743
2,B2,0.0693
3,B3,0.0569
4,B4,0.269
5,B5,0.112
6,B6,0.143

# Molecular target: T1, human GPC3 (Glypican-3)
# Assay: FACS on HepG2 cells
# Conditions: not given
# Remark: another data set of the same source
row,Molecule,EC50 [nM]
1,B1,0.351
2,B7,0.405
3,B8,0.611
4,B4,0.745
5,B9,1.25
6,B10,0.769

# Molecular target: T1, human GPC3 (Glypican-3)
# Assay: FACS on Huh-7 cells
# Conditions: not given
row,Molecule,EC50 [nM]
1,B1,0.418
2,B7,0.464
3,B8,0.667
4,B4,0.953
5,B9,1.18
6,B10,0.782

# Tested on: PDX model LIV#219 of nude mice with human liver cancer
# Assay: Antitumor activity in LIV#219 liver cancer PDX model
# Type: in vivo, BALB/c nude mice
# Conditions: 3 mg/kg, Day 26
# Description: The antitumor activity of GPC3-ADCs was tested in an LIV#219 liver cancer PDX model. The model has a higher expression level of GPC3 RNA, and a positive expression of GPC3 as confirmed by FACS analysis.
# The process of the establishment of a PDX model of nude mice with human liver cancer was as follows: A tumor tissue with a volume size of about 15-30 mm^3 was transplanted subcutaneously under the back of the BALB/c nude mice. When the tumor volume reached 250-360 mm^3, the mice were divided into a total of 4 groups by a randomized block method, with 6 mice per group, ensuring uniformity in tumor volume and balance in body weight between these groups. The groups included a vehicle group, a 3 mg/kg GC33-L1-D1 administration group, a 3 mg/kg Hu 52H5D3B8-7-L1-D1 administration group, and a 3 mg/kg Hu 52H5D3B8-8-L1-D1 administration group.
# Data analysis: During the experiment, the tumor volume was measured twice a week. The calculation formula for the tumor volume (TV) is: TV = l × w^2 / 2, in which l and w represent the measured length and width of the tumor, respectively. According to the measurement results, the relative tumor volume (RTV) was calculated by RTV = Vf / V0, in which V0 is the tumor volume measured at the time of grouping for administration (i.e., Day 0), and Vf is the tumor volume measured on the last day. […]
Molecule,relative tumor proliferation rate (T/C) (%),tumor growth inhibition rate (TGI %) [%]
B11,54.90,45.10

# Molecular target: T1, human GPC3 (Glypican-3)
# Assay: cell-based or functional assay
# Conditions: not given
row,Molecule,"Percentage reduction of GPC3 on cell surface (%), Huh7 cells, 2 h at 37°C against ice, FACS [%]"
1,B1,65.3
2,B7,64.4
3,B12,66.5
4,B13,65
5,B2,63.4
6,B3,64.3
7,B4,60
8,B11,63.1
9,B14,59.9
10,B5,61.3
11,B6,59
12,B15,70.8

# Molecular target: T1, human GPC3 (Glypican-3)
# Assay: FACS on CHO-K1 cells overexpressing human GPC3 (GPC3-CHO-K1)
# Conditions: not given
row,Molecule,EC50 [nM]
1,B1,0.411
2,B7,0.446
3,B8,0.907
4,B4,0.956
5,B9,1.46
6,B10,0.763

# Molecular target: T1, human GPC3 (Glypican-3)
# Assay: FACS on HepG2 cells, top of the fitted fluorescence curve
# Conditions: not given
row,Molecule,Top
1,B1,75000
2,B2,72900
3,B3,69100
4,B4,64100
5,B5,60200
6,B6,68000

# Molecular target: T1, human GPC3 (Glypican-3)
# Assay: cell-based or functional assay
# Conditions: not given
# Remark: another data set of the same source
Molecule,"EC50 value of cytotoxicity, HepG2 cells (96 h, PrestoBlue) [µg/mL]","EC50 value of cytotoxicity, Huh7 cells (96 h, PrestoBlue) [µg/mL]"
B12,0.0409,0.038
B13,–,0.0274
B3,0.0391,0.00352
B11,0.0732,0.0786
B14,–,0.0694
B5,–,0.00882
B6,0.0892,0.0148
B16,–,0.00455

# Molecular target: T1, human GPC3 (Glypican-3)
# Assay: cell-based or functional assay
# Conditions: not given
# Remark: another data set of the same source
Molecule,"internalization on HepG2 cells (pHAb dye-labelled anti-hIgG secondary antibody, 48 h): EC50 [µg/mL]","internalization on HepG2 cells (pHAb dye-labelled anti-hIgG secondary antibody, 48 h): Top"
B1,0.78,62400
B7,0.72,58600
B8,1.11,52200
B9,1.08,52000
B10,1.14,59200

# From patent EP4591887A1, “GPC3 ANTIBODY-DRUG CONJUGATE AND USE THEREOF” (priority 2022, dated 2024)
